According to US20110118131A1 (published 2011):

Biological target: T1, IL-1beta (UniProt P01584 117-269)
T1 construct: also called IL-1β
Assay: Biacore

B1: XPA23 Fab, heavy chain M57E (Fab, V domains shown)
VH: EVQLLESGGGLVQPGGSLRLSCAASGFTFSKYFMFWVRQAPGKGLEWVSVISPSGGETRYADSVKGRFTISRDNSKNTLYLQMNSLRAEDTAVYYCARVGYGGNSDYWGQGTLVTVSS
VL: DIQMTQSPSSVSASVGDRLTIICRASQDINRWLAWYQQTPGNAPKLLIHSATSLQSGVPSRFSGSGSGTDFTLTINSLQPEDFATYYCQQADSFPLTFGGGTKVEIK
  binding result: no binding

B2: XPA23 Fab, heavy chain N104D (Fab, V domains shown)
VH: EVQLLESGGGLVQPGGSLRLSCAASGFTFSKYFMFWVRQAPGKGLEWVSVISPSGGMTRYADSVKGRFTISRDNSKNTLYLQMNSLRAEDTAVYYCARVGYGGDSDYWGQGTLVTVSS
VL: DIQMTQSPSSVSASVGDRLTIICRASQDINRWLAWYQQTPGNAPKLLIHSATSLQSGVPSRFSGSGSGTDFTLTINSLQPEDFATYYCQQADSFPLTFGGGTKVEIK
  binding result: no binding

B3: XPA23 Fab, heavy chain N104F (Fab, V domains shown)
VH: EVQLLESGGGLVQPGGSLRLSCAASGFTFSKYFMFWVRQAPGKGLEWVSVISPSGGMTRYADSVKGRFTISRDNSKNTLYLQMNSLRAEDTAVYYCARVGYGGFSDYWGQGTLVTVSS
VL: DIQMTQSPSSVSASVGDRLTIICRASQDINRWLAWYQQTPGNAPKLLIHSATSLQSGVPSRFSGSGSGTDFTLTINSLQPEDFATYYCQQADSFPLTFGGGTKVEIK
  binding result: no binding

B4: XPA23 Fab, heavy chain M57S (Fab, V domains shown)
VH: EVQLLESGGGLVQPGGSLRLSCAASGFTFSKYFMFWVRQAPGKGLEWVSVISPSGGSTRYADSVKGRFTISRDNSKNTLYLQMNSLRAEDTAVYYCARVGYGGNSDYWGQGTLVTVSS
VL: DIQMTQSPSSVSASVGDRLTIICRASQDINRWLAWYQQTPGNAPKLLIHSATSLQSGVPSRFSGSGSGTDFTLTINSLQPEDFATYYCQQADSFPLTFGGGTKVEIK
  fold difference in affinity vs parental: 0.04 fold

B5: XPA23 Fab, heavy chain M57K (Fab, V domains shown)
VH: EVQLLESGGGLVQPGGSLRLSCAASGFTFSKYFMFWVRQAPGKGLEWVSVISPSGGKTRYADSVKGRFTISRDNSKNTLYLQMNSLRAEDTAVYYCARVGYGGNSDYWGQGTLVTVSS
VL: DIQMTQSPSSVSASVGDRLTIICRASQDINRWLAWYQQTPGNAPKLLIHSATSLQSGVPSRFSGSGSGTDFTLTINSLQPEDFATYYCQQADSFPLTFGGGTKVEIK
  fold difference in affinity vs parental: 0.04 fold

B6: XPA23 Fab, heavy chain N104H (Fab, V domains shown)
VH: EVQLLESGGGLVQPGGSLRLSCAASGFTFSKYFMFWVRQAPGKGLEWVSVISPSGGMTRYADSVKGRFTISRDNSKNTLYLQMNSLRAEDTAVYYCARVGYGGHSDYWGQGTLVTVSS
VL: DIQMTQSPSSVSASVGDRLTIICRASQDINRWLAWYQQTPGNAPKLLIHSATSLQSGVPSRFSGSGSGTDFTLTINSLQPEDFATYYCQQADSFPLTFGGGTKVEIK
  fold difference in affinity vs parental: 0.07 fold

B7: XPA23 Fab, heavy chain M57R (Fab, V domains shown)
VH: EVQLLESGGGLVQPGGSLRLSCAASGFTFSKYFMFWVRQAPGKGLEWVSVISPSGGRTRYADSVKGRFTISRDNSKNTLYLQMNSLRAEDTAVYYCARVGYGGNSDYWGQGTLVTVSS
VL: DIQMTQSPSSVSASVGDRLTIICRASQDINRWLAWYQQTPGNAPKLLIHSATSLQSGVPSRFSGSGSGTDFTLTINSLQPEDFATYYCQQADSFPLTFGGGTKVEIK
  fold difference in affinity vs parental: 0.06 fold

B8: XPA23 Fab, heavy chain M57F (Fab, V domains shown)
VH: EVQLLESGGGLVQPGGSLRLSCAASGFTFSKYFMFWVRQAPGKGLEWVSVISPSGGFTRYADSVKGRFTISRDNSKNTLYLQMNSLRAEDTAVYYCARVGYGGNSDYWGQGTLVTVSS
VL: DIQMTQSPSSVSASVGDRLTIICRASQDINRWLAWYQQTPGNAPKLLIHSATSLQSGVPSRFSGSGSGTDFTLTINSLQPEDFATYYCQQADSFPLTFGGGTKVEIK
  fold difference in affinity vs parental: 1.03 fold

B9: XPA23 Fab, heavy chain N104E (Fab, V domains shown)
VH: EVQLLESGGGLVQPGGSLRLSCAASGFTFSKYFMFWVRQAPGKGLEWVSVISPSGGMTRYADSVKGRFTISRDNSKNTLYLQMNSLRAEDTAVYYCARVGYGGESDYWGQGTLVTVSS
VL: DIQMTQSPSSVSASVGDRLTIICRASQDINRWLAWYQQTPGNAPKLLIHSATSLQSGVPSRFSGSGSGTDFTLTINSLQPEDFATYYCQQADSFPLTFGGGTKVEIK
  binding result: no binding

B10: XPA23 Fab, heavy chain M57Y (Fab, V domains shown)
VH: EVQLLESGGGLVQPGGSLRLSCAASGFTFSKYFMFWVRQAPGKGLEWVSVISPSGGYTRYADSVKGRFTISRDNSKNTLYLQMNSLRAEDTAVYYCARVGYGGNSDYWGQGTLVTVSS
VL: DIQMTQSPSSVSASVGDRLTIICRASQDINRWLAWYQQTPGNAPKLLIHSATSLQSGVPSRFSGSGSGTDFTLTINSLQPEDFATYYCQQADSFPLTFGGGTKVEIK
  fold difference in affinity vs parental: 0.86 fold

B11: XPA23 Fab, heavy chain M57Q (Fab, V domains shown)
VH: EVQLLESGGGLVQPGGSLRLSCAASGFTFSKYFMFWVRQAPGKGLEWVSVISPSGGQTRYADSVKGRFTISRDNSKNTLYLQMNSLRAEDTAVYYCARVGYGGNSDYWGQGTLVTVSS
VL: DIQMTQSPSSVSASVGDRLTIICRASQDINRWLAWYQQTPGNAPKLLIHSATSLQSGVPSRFSGSGSGTDFTLTINSLQPEDFATYYCQQADSFPLTFGGGTKVEIK
  fold difference in affinity vs parental: 0.02 fold

B12: XPA23 Fab, heavy chain M57N (Fab, V domains shown)
VH: EVQLLESGGGLVQPGGSLRLSCAASGFTFSKYFMFWVRQAPGKGLEWVSVISPSGGNTRYADSVKGRFTISRDNSKNTLYLQMNSLRAEDTAVYYCARVGYGGNSDYWGQGTLVTVSS
VL: DIQMTQSPSSVSASVGDRLTIICRASQDINRWLAWYQQTPGNAPKLLIHSATSLQSGVPSRFSGSGSGTDFTLTINSLQPEDFATYYCQQADSFPLTFGGGTKVEIK
  fold difference in affinity vs parental: 0.03 fold

B13: XPA23 Fab, heavy chain M57H (Fab, V domains shown)
VH: EVQLLESGGGLVQPGGSLRLSCAASGFTFSKYFMFWVRQAPGKGLEWVSVISPSGGHTRYADSVKGRFTISRDNSKNTLYLQMNSLRAEDTAVYYCARVGYGGNSDYWGQGTLVTVSS
VL: DIQMTQSPSSVSASVGDRLTIICRASQDINRWLAWYQQTPGNAPKLLIHSATSLQSGVPSRFSGSGSGTDFTLTINSLQPEDFATYYCQQADSFPLTFGGGTKVEIK
  fold difference in affinity vs parental: 0.08 fold

B14: XPA23 Fab, heavy chain N104K (Fab, V domains shown)
VH: EVQLLESGGGLVQPGGSLRLSCAASGFTFSKYFMFWVRQAPGKGLEWVSVISPSGGMTRYADSVKGRFTISRDNSKNTLYLQMNSLRAEDTAVYYCARVGYGGKSDYWGQGTLVTVSS
VL: DIQMTQSPSSVSASVGDRLTIICRASQDINRWLAWYQQTPGNAPKLLIHSATSLQSGVPSRFSGSGSGTDFTLTINSLQPEDFATYYCQQADSFPLTFGGGTKVEIK
  binding result: no binding

B15: XPA23 Fab, heavy chain N104Q (Fab, V domains shown)
VH: EVQLLESGGGLVQPGGSLRLSCAASGFTFSKYFMFWVRQAPGKGLEWVSVISPSGGMTRYADSVKGRFTISRDNSKNTLYLQMNSLRAEDTAVYYCARVGYGGQSDYWGQGTLVTVSS
VL: DIQMTQSPSSVSASVGDRLTIICRASQDINRWLAWYQQTPGNAPKLLIHSATSLQSGVPSRFSGSGSGTDFTLTINSLQPEDFATYYCQQADSFPLTFGGGTKVEIK
  fold difference in affinity vs parental: 0.03 fold
